In paper PMC11093360:

Key:
[1] = target: M2trunk(1–283) (human) (UniProt P08172)
[2] = target: M2trunk(1–228) (human) (UniProt P08172)

Row | Bmax of [3H]NMS binding sites in COS-7 cells cotransfected with both fragments (M2trunk(1–283) alone: N.B.) [1] [fmol/mg] | Maximum inhibition of forskolin stimulated cAMP accumulation (%) by carbachol in COS-7 cells cotransfected with both fragments [1] [%] | Bmax of [3H]NMS binding sites in COS-7 cells cotransfected with both fragments (M2trunk(1–228) alone: N.B.) [2] [fmol/mg] | Maximum inhibition of forskolin stimulated cAMP accumulation (%) by carbachol in COS-7 cells cotransfected with both fragments [2] [%] | Substance
1 | 480 | 37 |  |  | M2tail(M-281-466) (from UniProt P08172 281-466) (domain or fragment)
2 |  |  | 70 | 29 | M2tail(368–466) (from UniProt P08172 368-466) (domain or fragment)
